We go through one substance from patent publication US20100254992A1.

For this assay, the target named is HuMCP-1-His6 Mutant-6 (66D → 66K) (human) (UniProt P13500). Briefly: Biacore, CNTO 888 captured, MCP-1-His6 in solution.
Chain of HuMCP-1-His6 Mutant-6 (66D → 66K) (human) (P13500 other isoform, or with tags, fused parts or gaps mutant, form in doubt): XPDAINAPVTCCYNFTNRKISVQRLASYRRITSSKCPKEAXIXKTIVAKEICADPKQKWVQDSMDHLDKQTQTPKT

Substance CNTO 888 (antibody) had a Kd of 0.037 nM, a koff of 0.000186 s⁻¹ and an on-rate (kon) of 5.09e+06 M⁻¹ s⁻¹.

A word on the Kd: it is the free concentration of one partner at which half of the binding sites on the other are occupied at equilibrium, for simple one-to-one binding. The low end stands for higher affinity, the high end for lower affinity. A word on the koff: it is the rate constant with which the complex falls apart. A low value points to a long-lived complex. For orientation: kon means the second-order rate constant of association.
